This note sets out measurements from patent publication US20240262879.

In series [1] the test system is Control (peptide of Table 12).

Chain of rhMMP9 (chain, as listed by the source): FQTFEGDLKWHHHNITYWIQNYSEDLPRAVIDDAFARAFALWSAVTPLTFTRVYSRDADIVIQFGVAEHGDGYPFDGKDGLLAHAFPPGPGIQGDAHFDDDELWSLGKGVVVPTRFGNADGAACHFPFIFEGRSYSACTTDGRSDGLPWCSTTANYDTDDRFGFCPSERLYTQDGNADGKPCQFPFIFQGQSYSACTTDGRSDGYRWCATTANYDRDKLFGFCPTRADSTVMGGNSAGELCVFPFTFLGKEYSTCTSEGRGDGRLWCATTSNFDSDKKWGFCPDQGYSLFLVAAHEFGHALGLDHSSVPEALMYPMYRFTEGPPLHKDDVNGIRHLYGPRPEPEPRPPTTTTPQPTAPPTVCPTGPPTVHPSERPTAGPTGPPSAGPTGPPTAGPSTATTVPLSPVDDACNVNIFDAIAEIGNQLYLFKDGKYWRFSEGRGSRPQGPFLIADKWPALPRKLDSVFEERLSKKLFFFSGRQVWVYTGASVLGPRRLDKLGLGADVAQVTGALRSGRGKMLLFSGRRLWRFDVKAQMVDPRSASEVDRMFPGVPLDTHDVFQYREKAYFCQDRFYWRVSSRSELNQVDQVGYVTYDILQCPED
Chain of rmMMP2 (chain, as listed by the source): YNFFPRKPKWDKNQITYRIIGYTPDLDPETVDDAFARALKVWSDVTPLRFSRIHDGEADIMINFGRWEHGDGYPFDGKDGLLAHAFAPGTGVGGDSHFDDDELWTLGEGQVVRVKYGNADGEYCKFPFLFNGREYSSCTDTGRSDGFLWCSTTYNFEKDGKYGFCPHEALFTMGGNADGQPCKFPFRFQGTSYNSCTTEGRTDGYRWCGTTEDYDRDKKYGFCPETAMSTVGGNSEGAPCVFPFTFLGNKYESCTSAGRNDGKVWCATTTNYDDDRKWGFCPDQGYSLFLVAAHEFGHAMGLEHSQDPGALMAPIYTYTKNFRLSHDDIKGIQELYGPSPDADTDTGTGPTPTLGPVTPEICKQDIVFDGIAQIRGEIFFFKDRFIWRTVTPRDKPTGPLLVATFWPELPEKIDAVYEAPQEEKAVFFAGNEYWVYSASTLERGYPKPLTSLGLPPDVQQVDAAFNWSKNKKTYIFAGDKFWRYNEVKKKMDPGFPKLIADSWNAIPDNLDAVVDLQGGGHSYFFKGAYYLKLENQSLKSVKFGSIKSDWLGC
Chain of rhMMP3 (chain, as listed by the source): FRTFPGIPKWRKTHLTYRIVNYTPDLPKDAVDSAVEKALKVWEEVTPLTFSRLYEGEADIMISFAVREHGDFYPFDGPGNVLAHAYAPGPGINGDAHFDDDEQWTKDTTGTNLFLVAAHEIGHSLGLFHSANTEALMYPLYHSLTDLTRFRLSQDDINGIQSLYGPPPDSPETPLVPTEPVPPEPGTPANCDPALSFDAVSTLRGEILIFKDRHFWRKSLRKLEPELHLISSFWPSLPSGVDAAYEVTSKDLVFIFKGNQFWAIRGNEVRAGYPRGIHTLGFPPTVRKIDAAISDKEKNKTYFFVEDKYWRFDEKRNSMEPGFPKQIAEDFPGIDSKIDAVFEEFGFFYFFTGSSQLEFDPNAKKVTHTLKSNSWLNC
Chain of BI-050 (chain, as listed by the source, chain 1 of 2): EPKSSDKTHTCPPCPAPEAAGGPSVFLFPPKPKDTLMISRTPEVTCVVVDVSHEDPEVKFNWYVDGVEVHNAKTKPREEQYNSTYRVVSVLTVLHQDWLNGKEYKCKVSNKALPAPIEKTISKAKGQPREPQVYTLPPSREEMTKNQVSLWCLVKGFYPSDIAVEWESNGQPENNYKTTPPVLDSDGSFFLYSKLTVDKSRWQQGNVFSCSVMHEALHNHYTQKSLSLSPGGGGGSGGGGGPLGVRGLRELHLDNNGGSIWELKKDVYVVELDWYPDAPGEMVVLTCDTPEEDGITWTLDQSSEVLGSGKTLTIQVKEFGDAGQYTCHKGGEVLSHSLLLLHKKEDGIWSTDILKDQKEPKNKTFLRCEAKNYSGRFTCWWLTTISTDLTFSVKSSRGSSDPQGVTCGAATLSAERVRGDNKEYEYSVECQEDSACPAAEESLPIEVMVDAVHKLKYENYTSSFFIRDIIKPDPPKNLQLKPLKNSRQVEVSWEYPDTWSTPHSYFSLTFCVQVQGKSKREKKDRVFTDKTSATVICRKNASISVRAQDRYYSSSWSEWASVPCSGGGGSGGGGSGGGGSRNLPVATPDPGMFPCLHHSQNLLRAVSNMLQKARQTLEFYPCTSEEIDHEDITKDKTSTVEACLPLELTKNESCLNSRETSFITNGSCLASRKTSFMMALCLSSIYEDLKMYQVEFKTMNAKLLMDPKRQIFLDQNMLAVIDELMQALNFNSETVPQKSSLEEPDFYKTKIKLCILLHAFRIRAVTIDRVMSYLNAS
Chain of BI-050 (chain, as listed by the source, chain 2 of 2): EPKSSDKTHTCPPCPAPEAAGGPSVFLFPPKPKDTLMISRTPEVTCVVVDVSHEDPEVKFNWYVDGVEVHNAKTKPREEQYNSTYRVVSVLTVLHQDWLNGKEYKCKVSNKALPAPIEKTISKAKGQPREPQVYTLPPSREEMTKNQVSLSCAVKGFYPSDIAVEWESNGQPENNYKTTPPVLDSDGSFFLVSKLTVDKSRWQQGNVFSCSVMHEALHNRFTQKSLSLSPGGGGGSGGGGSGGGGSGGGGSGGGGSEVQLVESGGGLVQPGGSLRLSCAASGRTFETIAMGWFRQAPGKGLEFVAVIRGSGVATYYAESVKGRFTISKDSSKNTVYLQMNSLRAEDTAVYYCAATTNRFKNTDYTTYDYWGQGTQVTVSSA
Chain of BI-052 (chain, as listed by the source, chain 1 of 2): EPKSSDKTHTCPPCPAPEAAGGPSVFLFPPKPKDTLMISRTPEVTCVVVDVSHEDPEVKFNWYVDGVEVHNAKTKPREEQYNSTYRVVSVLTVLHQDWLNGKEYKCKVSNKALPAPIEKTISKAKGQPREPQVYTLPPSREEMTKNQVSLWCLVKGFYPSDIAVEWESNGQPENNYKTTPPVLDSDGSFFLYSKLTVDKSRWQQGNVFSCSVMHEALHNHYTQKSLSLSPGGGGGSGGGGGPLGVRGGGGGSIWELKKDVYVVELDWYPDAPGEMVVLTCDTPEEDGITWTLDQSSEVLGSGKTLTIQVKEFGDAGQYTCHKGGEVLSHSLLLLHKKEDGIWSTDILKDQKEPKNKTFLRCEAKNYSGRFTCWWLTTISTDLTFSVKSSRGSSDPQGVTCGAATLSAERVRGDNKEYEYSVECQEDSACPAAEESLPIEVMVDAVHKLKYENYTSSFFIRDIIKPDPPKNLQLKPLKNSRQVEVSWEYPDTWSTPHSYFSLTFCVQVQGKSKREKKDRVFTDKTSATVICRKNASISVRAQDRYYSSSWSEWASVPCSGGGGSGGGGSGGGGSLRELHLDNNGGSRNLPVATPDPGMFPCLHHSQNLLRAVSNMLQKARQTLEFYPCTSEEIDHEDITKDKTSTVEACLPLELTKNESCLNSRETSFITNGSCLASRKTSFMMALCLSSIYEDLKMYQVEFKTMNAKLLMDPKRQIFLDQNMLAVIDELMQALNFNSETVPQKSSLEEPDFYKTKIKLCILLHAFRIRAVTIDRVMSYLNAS
Chain of BI-054 (chain, as listed by the source, chain 1 of 2): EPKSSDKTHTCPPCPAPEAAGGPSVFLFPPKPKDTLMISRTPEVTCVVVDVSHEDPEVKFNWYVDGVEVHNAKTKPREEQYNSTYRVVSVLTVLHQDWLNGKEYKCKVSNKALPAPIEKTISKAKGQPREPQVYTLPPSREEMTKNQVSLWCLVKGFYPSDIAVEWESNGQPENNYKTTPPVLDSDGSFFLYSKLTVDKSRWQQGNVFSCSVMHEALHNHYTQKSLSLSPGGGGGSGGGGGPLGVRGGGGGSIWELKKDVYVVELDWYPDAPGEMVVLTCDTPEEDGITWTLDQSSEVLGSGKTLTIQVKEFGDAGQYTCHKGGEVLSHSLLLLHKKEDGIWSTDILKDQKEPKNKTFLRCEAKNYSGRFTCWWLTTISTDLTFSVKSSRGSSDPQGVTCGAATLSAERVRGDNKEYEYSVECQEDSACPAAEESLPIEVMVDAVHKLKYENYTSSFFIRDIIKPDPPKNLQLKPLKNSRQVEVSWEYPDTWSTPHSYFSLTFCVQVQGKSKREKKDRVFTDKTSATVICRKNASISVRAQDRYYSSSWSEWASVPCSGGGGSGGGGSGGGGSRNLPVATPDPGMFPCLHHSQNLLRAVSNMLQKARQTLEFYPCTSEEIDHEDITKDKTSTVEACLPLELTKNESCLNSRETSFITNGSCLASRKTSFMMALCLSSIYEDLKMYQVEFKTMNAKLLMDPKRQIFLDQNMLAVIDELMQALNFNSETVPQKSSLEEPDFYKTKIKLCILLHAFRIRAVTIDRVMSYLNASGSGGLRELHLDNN
Chain of BI-054 (chain, as listed by the source, chain 2 of 2): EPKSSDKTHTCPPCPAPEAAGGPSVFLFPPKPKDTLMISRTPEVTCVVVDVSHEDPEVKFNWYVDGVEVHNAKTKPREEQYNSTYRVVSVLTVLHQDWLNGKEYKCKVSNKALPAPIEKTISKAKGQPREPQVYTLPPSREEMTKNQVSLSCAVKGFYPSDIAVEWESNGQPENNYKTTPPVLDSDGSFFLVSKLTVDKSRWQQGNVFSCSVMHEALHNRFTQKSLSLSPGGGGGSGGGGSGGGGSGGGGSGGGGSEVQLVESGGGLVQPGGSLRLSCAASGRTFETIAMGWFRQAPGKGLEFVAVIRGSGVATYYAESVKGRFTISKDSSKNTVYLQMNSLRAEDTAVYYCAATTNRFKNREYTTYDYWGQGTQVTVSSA

As for rhMMP3, the Specific Activity came out at 10 pmol/min/µg in series [1], 18.3 pmol/min/µg with Peptide 10, 14.2 pmol/min/µg in the series on Peptide 5 (GPLGVRG) and 51.2 pmol/min/µg with Peptide 8.
For rhMMP9, the “cleavage shown by SDS-PAGE” value in the series with BI-050, with BI-051, in the series with BI-052, in the series on BI-054 and in the series with BI-055 was “efficiently cleaved” each time. Moreover, the “cleavage by Western blot” value with BI-059 is reported as “efficiently cleaved with the human tumor lysates to the level comparable to activated MMP9”. The Specific Activity worked out at 10 pmol/min/µg in series [1], 63.6 pmol/min/µg with Peptide 10, 200 pmol/min/µg in the series with Peptide 5 (GPLGVRG) and 123 pmol/min/µg with Peptide 8.
For rmMMP2, the Specific Activity in series [1] came out at 10 pmol/min/µg; in the series on Peptide 10 it was 98.9 pmol/min/µg; in the series with Peptide 5 (GPLGVRG), 165 pmol/min/µg; in the series with Peptide 8, 233 pmol/min/µg.
